From paper PMC7187929 (Biochimica et biophysica acta. Bioenergetics, 2017)
Blank lines part the entries; values can stand above or below the molecule they belong to.

Experiments:
[1] = biological target: HtSH (soluble NAD+-reducing [NiFe]-hydrogenase, HoxFUYH) (Hydrogenophilus thermoluteolus, UniProt A0A077L6X8); experiment: fluorometric FMN determination in purified protein; type: binding; conditions: bound cofactor content of purified enzyme
[2] = biological target: HoxFU module of HtSH (Hydrogenophilus thermoluteolus TH-1T) (Hydrogenophilus thermoluteolus TH-1T); experiment: co-purification
purified protein [3] = substrate: NC(=O)C1=CN([C@@H]2O[C@H](COP(=O)(O)OP(=O)(O)OC[C@H]3O[C@@H](n4cnc5c(N)ncnc54)[C@H](O)[C@@H]3O)[C@@H](O)[C@H]2O)C=CC1; experiment: purified protein; conditions: benzyl viologen as electron acceptor, 50 °C
purified protein [4] = substrate: NC(=O)c1ccc[n+]([C@@H]2O[C@H](COP(=O)(O)OP(=O)(O)OC[C@H]3O[C@@H](n4cnc5c(N)ncnc54)[C@H](O)[C@@H]3O)[C@@H](O)[C@H]2O)c1; experiment: purified protein; conditions: H2 as electron donor, 50 °C, kcat at pH 6.5

HtSH (soluble NAD+-reducing [NiFe]-hydrogenase, HoxFUYH), sequence (A0A077L885 1-242 partner, one chain of several): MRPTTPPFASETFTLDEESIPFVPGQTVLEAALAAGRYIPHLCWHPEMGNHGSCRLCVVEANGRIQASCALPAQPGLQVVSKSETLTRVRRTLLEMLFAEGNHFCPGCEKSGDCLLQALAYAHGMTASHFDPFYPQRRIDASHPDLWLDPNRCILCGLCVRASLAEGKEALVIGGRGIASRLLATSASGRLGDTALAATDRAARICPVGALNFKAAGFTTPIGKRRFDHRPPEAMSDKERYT
HtSH (soluble NAD+-reducing [NiFe]-hydrogenase, HoxFUYH), sequence (A0A077L7R5 1-189 partner, one chain of several): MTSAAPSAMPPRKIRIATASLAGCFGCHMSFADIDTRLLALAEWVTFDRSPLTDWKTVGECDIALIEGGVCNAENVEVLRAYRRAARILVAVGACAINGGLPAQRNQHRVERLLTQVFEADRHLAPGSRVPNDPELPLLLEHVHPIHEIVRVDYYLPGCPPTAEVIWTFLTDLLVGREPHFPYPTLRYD
HtSH (soluble NAD+-reducing [NiFe]-hydrogenase, HoxFUYH), sequence (A0A077LAI5 1-468 partner, one chain of several): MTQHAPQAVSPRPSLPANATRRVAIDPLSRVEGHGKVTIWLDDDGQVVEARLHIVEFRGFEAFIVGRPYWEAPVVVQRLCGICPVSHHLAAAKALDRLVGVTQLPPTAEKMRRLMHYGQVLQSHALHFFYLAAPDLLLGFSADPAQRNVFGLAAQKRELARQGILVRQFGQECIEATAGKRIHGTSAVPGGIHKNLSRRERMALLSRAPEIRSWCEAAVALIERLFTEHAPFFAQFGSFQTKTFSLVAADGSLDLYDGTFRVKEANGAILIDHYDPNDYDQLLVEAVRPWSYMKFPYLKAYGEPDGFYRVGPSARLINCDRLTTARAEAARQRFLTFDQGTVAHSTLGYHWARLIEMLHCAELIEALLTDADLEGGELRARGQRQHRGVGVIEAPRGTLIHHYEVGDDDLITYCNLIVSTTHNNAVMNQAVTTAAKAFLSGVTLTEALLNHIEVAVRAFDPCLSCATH

- FMN per SH tetramer [1]: 1.07 mol/mol
Molecule: Cc1cc2nc3c(=O)[nH]c(=O)nc-3n(C[C@H](O)[C@H](O)[C@H](O)COP(=O)(O)O)c2cc1C [FMN]

- stoichiometry N [2]: 1
Molecule: HoxYH module of HtSH (Hydrogenophilus thermoluteolus TH-1T) (from UniProt A0A077L7R5 1-189) (complex)

B1: HtSH (soluble NAD+-reducing [NiFe]-hydrogenase, HoxFUYH) (Hydrogenophilus thermoluteolus) (protein)
chain: MTTERQRTAPGLLAALHQARSRFGRPLDAQALAELSTAFSLPPGEIAATASFYHFFQTPPARYQIHFVDHVVDHHAGVAALCNHLCAAFAIQPGQRTADARLFVGWTACAGLSDQAPAALINGRPMPRLDAARIDALIEKIQAQIPMDQWPTEWFAVTNAIHRHGPLLTWLDTTPAEAVFEHPTAHDPDAILQAVTDAGLRGRGGAGFPTATKWRFCRENADPERFLICNADEGEPGTFKDRVLLTRYPEHLFAGMILAARAIGADKAILYLRYEYQYLLPQLEAARERIASAQATVPQAERVTLEIALGAGAYVCGEESALIESLEGKPGRPRVRPPYPVTQGYLGHPTVVNNVETLVAVAAIVGNGAAWWRALGTPDSSGPKLFCVSGDVAQPGLYEFPYGVALGDVVTAARPLGTRYAVQVSGPSGTLLPATPEQLARPLAFEALPCNGTVMVFDVRRDPVAIVHHFARFFAHESCGFCTPCRVGTQLIAKTFEKIAAGYATRFDLERLAPALEAMRLASNCGFGLSAGNPVRDLIAHFRQQLEAQLQPHDFIPAFSLDAELAATRRLTGRDDPHAHLAQFEQPEVTR
- Km (purified protein [3]): 1200 µM
- Km (purified protein [4]): 469 µM
